{"source": "patent US20180187185", "test_in_all_cases": "cell_activity", "key": {"[1]": {"tested_on": "AAVS1 TALE-Clo051 (Clo051-XTN) (Xanthomonas TALE)", "settings": "average of replicates; locus inferred AAVS1; sequencing gave 9.3% indels (FIG. 11)"}, "[2]": {"tested_on": "AAVS1 TALE-FokI (FokI-XTN) (Xanthomonas TALE)", "settings": "average of replicates; locus inferred AAVS1; sequencing gave 6.5% indels (FIG. 12)"}, "[3]": {"tested_on": "Bmpr2 REV RTN (Ralstonia TALE 16 EBEs in Xanthomonas TAL backbone-FokI) (Ralstonia (TALE repeats); Xanthomonas backbone)", "settings": "RTN pair p1+p2, Rat C6, Surveyor 250 bp band; 5.43% by 150 bp band; printed SEQ 150 differs from SEQ 148 complement at position 5"}, "[4]": {"tested_on": "Bmpr2 FWD RTN (Ralstonia TALE 16 EBEs in Xanthomonas TAL backbone-FokI) (Ralstonia (TALE repeats); Xanthomonas backbone)", "settings": "RTN pair p1+p2, Rat C6, Surveyor 250 bp band; 5.43% by 150 bp band"}, "[5]": {"tested_on": "Bmpr2 XTN (Xanthomonas TALEN-FokI pair) (Xanthomonas)", "settings": "TALEN pair, Rat C6, Surveyor 250 bp band; 3.66% by 150 bp band; XTN RVDs and half-sites not stated"}}}
{"substance": "AAVS1 target locus", "values": [{"measurement": "activity", "setting": "[1]", "value": 8.1, "unit": "% cutting"}, {"measurement": "activity", "setting": "[2]", "value": 7.1, "unit": "% cutting"}]}
{"substance": "TGACAGGTAAACGAAATA (double strand) [Bmpr2 reverse half-site (complement of the printed strand)]", "values": [{"measurement": "activity", "setting": "[3]", "value": 1.82, "unit": "% cutting"}]}
{"substance": "TTGATAGTCGCCTTATGT (double strand) [Bmpr2 forward half-site]", "values": [{"measurement": "activity", "setting": "[4]", "value": 1.82, "unit": "% cutting"}]}
{"substance": "TTGATAGTCGCCTTATGTTTTGGATACAGAATGTTGACAGGTAAACGAAATA (double strand) [Bmpr2 full TALEN target site]", "values": [{"measurement": "activity", "setting": "[5]", "value": 5.75, "unit": "% cutting"}]}
